According to patent US20190092852A1 (Genentech, published 2019):
Changes are numbered by the printed parent chain.

Experiments:
[1] = target: T1, human IL-33 (R&D Systems, #3625-IL-010/CF) (human, UniProt O95760 112-270); assay: SPR Biacore T200, 25 C
T1 construct: also called hIL-33; huIL-33
T1 sequence (looked up): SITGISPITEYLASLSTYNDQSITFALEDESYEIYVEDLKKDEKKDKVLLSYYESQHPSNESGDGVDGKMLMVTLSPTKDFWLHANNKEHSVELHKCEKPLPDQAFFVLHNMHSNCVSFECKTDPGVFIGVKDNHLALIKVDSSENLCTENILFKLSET
Method: (§1) The binding kinetics of the anti-IL-33 antibody 10C12.38.H6.87Y.58I IgG4 and each anti-IL-33 antibody listed in Table 5 (RG1-RG20) to IL-33 were measured using surface plasmon resonance (SPR) on a BIACORE® T200 instrument (GE Healthcare). Anti-human Fc or anti-murine Fc (GE Healthcare, #BR-1008-39 or BR-1008-38, respectively) was immobilized on a CM5 sensor chip via amine-based coupling according to the manufacturer's protocol. Surfaces were used to capture monoclonal human IgG4 and monoclonal murine IgGs for kinetic studies. Antibody binding was measured to human IL-33 (R&D systems, #3625-IL-010/CF) and cyno IL-33 N-His (SEQ ID NO: 317) (Genentech, Inc.). A three-fold concentration series of cytokine with a range of 3.7 to 100 nM was used for the experiments. Sensograms for binding of IL-33 were recorded using an injection time of 4 min with a flow rate of 30 μl/minute with a running buffer of 0.01 M N-(2-Acetamido)iminodiacetic acid (ADA) pH 7.4, 0.15 M NaCl, 3 mM EDTA, and 0.05% TWEEN®-20. After injection, disassociation of the ligand from the antibody was monitored for 10 min in running buffer. The surface was regenerated in between cycles with an injection of 3 M magnesium chloride or Glycine-HCl pH 1.7. All binding experiments were performed at a temperature of 25′C and 37° C. After subtraction of a blank which contained running buffer only, sensograms observed for IL-33 binding to anti-IL-33 antibodies were analyzed using a 1:1 Langmuir binding model with software supplied by the manufacturer to calculate the kinetics and binding constants, including the dissociation constant (KD). Dissociative half-lives (t_{1/2}) were calculated from the kinetic rate constants. KD (M)=koff/kₒₙ and t_{1/2} (min)=ln(2)/(60*koff). […] In Tables 6-9, *IC indicates the result is inconclusive due to weak capture of antibody was observed, leading to poor binding data.

cyno IL-33 N-His [2] = target: T2, cyno IL-33 N-His (cynomolgus monkey); assay: SPR Biacore T200, 25 C
T2 chain: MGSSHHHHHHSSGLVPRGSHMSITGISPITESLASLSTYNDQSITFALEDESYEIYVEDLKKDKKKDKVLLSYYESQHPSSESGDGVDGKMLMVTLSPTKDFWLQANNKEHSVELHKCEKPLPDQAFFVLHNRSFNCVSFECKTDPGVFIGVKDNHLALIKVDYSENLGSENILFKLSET
Method: as §1

[3] = target: T1, human IL-33 (R&D Systems, …); assay: SPR Biacore T200, 37 C
Method: as §1

cyno IL-33 N-His [4] = target: T2, cyno IL-33 N-His; assay: SPR Biacore T200, 37 C
Method: as §1

[5] = target: T1, human IL-33 (R&D Systems, …); assay: cell-based or functional assay
[6] = target: T1, human IL-33 (R&D Systems, …); assay: cell-based or functional assay; remark: listed apart in the source
[7] = target: T1, human IL-33 (R&D Systems, …); assay: cell-based or functional assay; remark: listed apart in the source
biotinylated human IL-33 = target: T3, biotinylated human IL-33 (human, UniProt O95760 112-270, biotin-labeled with EZ-LINK NHS-PEG4-Biotin); assay: competitive ELISA, biotin-huIL-33 to coated hST2-Fc
T3 construct: also called biotin-huIL-33
T3 sequence (looked up): T1 sequence (looked up)
Method: The ability of the anti-IL-33 antibody 10C12.38.H6.87Y.58I IgG4 and each anti-IL-33 antibody listed in Table 5 (RG1-RG20) to block either human IL-33 or cyno IL-33 binding to human ST2 receptor was tested in a competitive binding ELISA. Briefly, 1 μg/ml of recombinant human ST2-Fc chimera protein prepared in coating buffer (50 mM sodium carbonate, pH 9.6) was coated on a 384-well MAXISORP® plate (Nalgene Nunc International; Rochester, N.Y.) and incubated overnight at 4° C. On the next day, non-specific binding was blocked with PBS containing 0.5% (w/v) solution of bovine serum albumin (BSA). Fixed concentrations of biotinylated human or cyno IL-33 prepared in assay buffer (25 mM PBS, pH 7.2, 0.1% BSA, 0.05% TWEEN®-20) were mixed with an equal volume of serially-diluted anti-IL-33 antibodies or assay buffer alone and incubated for 1 h at room temperature. The final assay concentrations of biotinylated human IL-33 or cyno IL-33 were 20 pM and 45 pM, respectively, and the final assay concentration of each antibody ranged from 0-300 nM. The pre-mixed solutions were added to the ST2-Fc coated plate and incubated for 1 h at room temperature. The binding of biotinylated IL-33 to coated ST2-Fc was detected by the sequential addition of Streptavidin Poly-HRP80 (Fitzgerald; Buckinghamshire, UK) and 3,3′,5,5′-tetramethyl benzidine (TMB) Microwell Peroxidase Substrate System (KPL; Gaithersburg, Md.). The absorbance (450 nm) was recorded using a […] ASCENT® plate reader (Thermo Scientific; Rockford, Ill.). The binding activity (%) of biotin-IL-33 to ST2 in the presence of anti-IL-33 was plotted as a function of antibody concentration. The data generated were fitted to a four-parameter equation to determine IC₅₀ values for each antibody (FIGS. 25A and 25B) using Prism software (Graphpad Software; La Jolla, Calif.). The maximum blocking (%) of each antibody was calculated as the ratio of the reduction in signal measured in the presence of antibody relative to the difference between the signal with IL-33 alone and background measurements.

[8] = target: T1, human IL-33 (R&D Systems, …); assay: cell-based or functional assay; remark: listed apart in the source

B1: H1M9559N (antibody, IgG1, V domains shown)
VH: QVQLVESGGGVVQPGRSLRLSCAASGFTFSSYGMHWVRQAPGKGLEWVAVIWYDGRNKYYTDSVKGRFTISRDNSKNTLYLQMDSLRAEDTAVYYCARERYISSYYGGFDPWGQGALVTVSS
VL: DIQMTQSPSSVSASVGDRVTITCRASQGISSWLAWYQQKPGKAPKVLIYAASSLQSGVPSRFSGSGSGTDFTLTISSLQPEDFATYYCQQANSFPFTFGPGTKLDIK
notes: also called RG1
Question: Which results are given for B1?
Answer: Kd [1]: 0.811 nM; koff [1]: 0.000184 s⁻¹; kon [1]: 226000 M⁻¹ s⁻¹; t1/2 [1]: 63 min; Kd (cyno IL-33 N-His [2]): 3.76 nM; koff (cyno IL-33 N-His [2]): 0.000458 s⁻¹; kon (cyno IL-33 N-His [2]): 122000 M⁻¹ s⁻¹; t1/2 (cyno IL-33 N-His [2]): 25 min; Kd [3]: 2.37 nM; koff [3]: 0.000888 s⁻¹; kon [3]: 374000 M⁻¹ s⁻¹; t1/2 [3]: 13 min; Kd (cyno IL-33 N-His [4]): 8.33 nM; koff (cyno IL-33 N-His [4]): 0.00193 s⁻¹; kon (cyno IL-33 N-His [4]): 232000 M⁻¹ s⁻¹; t1/2 (cyno IL-33 N-His [4]): 6 min; IC50; SEAP reporter (OD 620), HEK-BLUE IL-33/IL-1beta cells, 10 pM hIL-33 [5]: 9.5e-09 M; Ph-p38 MFI at 0.4 nM Ab (500 pM human IL-33, primary basophils) [6]: 90 MFI; Ph-p38 MFI at 2 nM Ab (500 pM human IL-33, primary basophils) [7]: 100 MFI; IC50 (biotinylated human IL-33): 4.1 nM; Maximum Blocking (biotinylated human IL-33): 75%

B2: H4H9633P (antibody, IgG4, V domains shown)
VH: EVQLVESGGGLVQPGGSLRLSCAASGFTFSSYVMSWVRQAPGKGLEWVSSISGNGGSTNYADSVKGRFTISRDNSKNTLFLEMNSLRAEDTAVYYCAKSLGTTTTFLGFDYWGQGTLVTVSS
VL: B1 VL with V46L, D70Y, F96L, P100G, L104V, D105E
notes: also called RG5
Question: What does the source list for B2?
Answer: Kd [1]: 0.941 nM; koff [1]: 0.000462 s⁻¹; kon [1]: 491000 M⁻¹ s⁻¹; t1/2 [1]: 25 min; Kd (cyno IL-33 N-His [2]): 14.9 nM; koff (cyno IL-33 N-His [2]): 0.00337 s⁻¹; kon (cyno IL-33 N-His [2]): 227000 M⁻¹ s⁻¹; t1/2 (cyno IL-33 N-His [2]): 3 min; Kd [3]: 0.726 nM; koff [3]: 0.000845 s⁻¹; kon [3]: 1.16e+06 M⁻¹ s⁻¹; t1/2 [3]: 14 min; Kd (cyno IL-33 N-His [4]): 42.7 nM; koff (cyno IL-33 N-His [4]): 0.0113 s⁻¹; kon (cyno IL-33 N-His [4]): 265000 M⁻¹ s⁻¹; t1/2 (cyno IL-33 N-His [4]): 1 min; IC50; SEAP reporter (OD 620), HEK-BLUE IL-33/IL-1beta cells, 10 pM hIL-33 [5]: 3.7e-09 M; IC50; IFN-gamma ELISA, primary human NK cells, 260 pM hIL-33 + IL-12 [8]: 4.1e-08 M; Ph-p38 MFI at 0.4 nM Ab (500 pM human IL-33, primary basophils) [6]: 149 MFI; Ph-p38 MFI at 2 nM Ab (500 pM human IL-33, primary basophils) [7]: 142 MFI; IC50 (biotinylated human IL-33): 1.1 nM; Maximum Blocking (biotinylated human IL-33): 68%

B3: H1M9566N (antibody, IgG1, V domains shown)
VH: EVQLLESGGDLVQPGGSLRLSCAASGFTFSSYAMSWVRQAPGKGLEWVSVISGSGSSTDYADSVKGRFTISRDNSRDTLHLQMNSLRAEDTAVYYCAKTFYYFYGLDVWGQGTTVTVSS
VL: DIQMTQSPSSLSASLRDRVTITCRASQGISNYLAWYQQKPGKVPKVLIYAASTLQSGVPSRFSGSGSGTVFTLTISSLQTEDVATYYCQKYSSAPFTFGPGTKVDIK
notes: also called RG2
Question: Which Kd [1] does the source give for B3 here?
Answer: The Kd was 0.798 nM.

Question: What about the koff [1] of the same binder?
Answer: The koff was 7.73e-05 s⁻¹.

Question: What about the kon [1] of the same binder?
Answer: The kon was 96900 M⁻¹ s⁻¹.

Question: What about the t1/2 [1] of the same binder?
Answer: Its t1/2 is 149 min.

Question: What about the Kd (cyno IL-33 N-His [2]) of the same binder?
Answer: Its Kd is 0.656 nM.

Question: What about the koff (cyno IL-33 N-His [2]) of the same binder?
Answer: The koff was 7.66e-05 s⁻¹.

Question: And the kon (cyno IL-33 N-His [2])?
Answer: The kon was 117000 M⁻¹ s⁻¹.

Question: What about the t1/2 (cyno IL-33 N-His [2]) of the same binder?
Answer: Its t1/2 is 151 min.

Question: What about the Kd [3] of the same binder?
Answer: Its Kd is 4.04 nM.

Question: What about the koff [3] of the same binder?
Answer: The koff was 0.000522 s⁻¹.

Question: And the kon [3]?
Answer: The kon was 129000 M⁻¹ s⁻¹.

Question: What about the t1/2 [3] of the same binder?
Answer: Its t1/2 is 22 min.

Question: What about the Kd (cyno IL-33 N-His [4]) of the same binder?
Answer: The Kd was 2.54 nM.

Question: And the koff (cyno IL-33 N-His [4])?
Answer: The koff was 0.000469 s⁻¹.

Question: What about the kon (cyno IL-33 N-His [4]) of the same binder?
Answer: Its kon is 185000 M⁻¹ s⁻¹.

Question: And the t1/2 (cyno IL-33 N-His [4])?
Answer: The t1/2 was 25 min.

Question: And the “IC50; SEAP reporter (OD 620), HEK-BLUE IL-33/IL-1beta cells, 10 pM hIL-33” value [5]?
Answer: Its value is 1.7e-08 M.

Question: And the “Ph-p38 MFI at 0.4 nM Ab (500 pM human IL-33, primary basophils)” value [6]?
Answer: The value was 119 MFI.

Question: And the “Ph-p38 MFI at 2 nM Ab (500 pM human IL-33, primary basophils)” value [7]?
Answer: Its value is 146 MFI.

Question: And the IC50 (biotinylated human IL-33)?
Answer: The IC50 was 0.099 nM.

Question: And the “Maximum Blocking” value (biotinylated human IL-33)?
Answer: The value was 27%.
